One molecule from US20110206694A1 (UNIVERSITY OF TENNESSEE RESEARCH FOUNDATION, published 2011) can be followed below.

The assay has as its target labeled control protein (BSA) (UniProt P02769 25-607). As to the kind of experiment: membrane-immobilized flagellin bait, biotinylated prey, streptavidin-HRP.

Sequence of labeled control protein (BSA) (P02769 25-607 limits assumed): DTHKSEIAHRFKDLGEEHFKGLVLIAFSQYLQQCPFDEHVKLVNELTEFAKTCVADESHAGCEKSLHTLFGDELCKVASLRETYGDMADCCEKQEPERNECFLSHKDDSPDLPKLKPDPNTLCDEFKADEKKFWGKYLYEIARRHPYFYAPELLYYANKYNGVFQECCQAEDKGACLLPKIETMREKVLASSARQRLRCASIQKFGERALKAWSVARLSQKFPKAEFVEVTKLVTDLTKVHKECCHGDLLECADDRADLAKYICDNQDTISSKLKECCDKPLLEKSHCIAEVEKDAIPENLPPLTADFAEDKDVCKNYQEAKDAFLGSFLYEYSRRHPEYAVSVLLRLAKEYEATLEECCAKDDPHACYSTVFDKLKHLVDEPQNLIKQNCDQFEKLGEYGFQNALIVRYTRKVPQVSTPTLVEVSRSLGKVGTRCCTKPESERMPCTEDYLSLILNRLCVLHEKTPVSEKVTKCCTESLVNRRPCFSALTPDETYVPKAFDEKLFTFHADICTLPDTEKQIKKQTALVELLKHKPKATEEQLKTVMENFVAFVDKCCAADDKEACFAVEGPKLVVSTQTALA

B1: flagellin FliC, serotype H48, of E. coli K-12 (MG1655) (other)
chain: AQVINTNSLSLITQNNINKNQSALSSSIERLSSGLRINSAKDDAAGQAIANRFTSNIKGLTQAARNANDGISVAQTTEGALSEINNNLQRVRELTVQATTGTNSESDLSSIQDEIKSRLDEIDRVSGQTQFNGVNVLAKNGSMKIQVGANDNQTITIDLKQIDAKTLGLDGFSVKNNDTVTTSAPVTAFGATTTNNIKLTGITLSTEAATDTGGTNPASIEGVYTDNGNDYYAKITGGDNDGKYYAVTVANDGTVTMATGATANATVTDANTTKATTITSGGTPVQIDNTAGSATANLGAVSLVKLQDSKGNDTDTYALKDTNGNLYAADVNETTGAVSVKTITYTDSSGAASSPTAVKLGGDDGKTEVVDIDGKTYDSADLNGGNLQTGLTAGGEALTAVANGKTTDPLKALDDAIASVDKFRSSLGAVQNRLDSAVTNLNNTTTNLSEAQSRIQDADYATEVSNMSKAQIIQQAGNSVLAKANQVPQQVLSLLQG
notes: also called FliCH48; FliC (H48)
On to B1, for which the binding result is recorded as “no binding (tested: 10 µg/ml)”.
